Substitutions are numbered along the chain they refer to. In names and notes the source's numbering stands.
B1: LbNOX: water-forming NADH oxidase endogenous to Lactobacillus brevis; tested with C-terminal FLAG tag (protein, listed as Lactobacillus brevis)
chain: KVTVVGCTHAGTFAIKQILAEHPDAEVTVYERNDVISFLSCGIALYLGGKVADPQGLFYSSPEELQKLGANVQMNHNVLAIDPDQKTVTVEDLTNHAQTTESYDKLVMTSGSWPIVPKIPGIDSDRVKLCKNWAHAQALIEDAKEAKRITVIGAGYIGAELAEAYSTTGHDVTLIDAMARVMPKYFDADFTDVIEQDYRDHGVQLALGETVESFTDSATGLTIKTDKNSYETDLAILCIGFRPNTDLLKGKVDMAPNGAIITDDYMRSSNPDIFAAGDSAAVHYNPTHQNAYIPLATNAVRQGILVGKNLVKPTVKYMGTQSSSGLALYDRTIVSTGLTLAAAKQQGLNAEQVIVEDNYRPEFMPSTEPVLMSLVFDPDTHRILGGALMSKYDVSQSANTLSVCIQNENTIDDLAMVDMLFQPNFDRPFNYLNILAQAAQAKVAQSVNA
modifications: C-terminal FLAG tag
B2: TPNOX: NADPH-specific quintuple mutant (G159A/D177A/A178R/M179S/P184R) of LbNOX (protein)
chain: B1 chain with G158A, D176A, A177R, M178S, P183R

What was measured:
Type in all cases: biochemical
[1] = Continuous assay of H2O2 production (Amplex Red/HRP/SOD)
Experimental: Reaction mixture contained: 50 mM NaPi pH 7.5, 150 mM NaCl buffer, 350 μM NADH, SOD 130U and 100 μM D-glucose at 37° C. At times indicated LbNOX and glucose oxidase were added. Glucose oxidase was used to validate the assay, since this enzyme produces H2O2 from oxygen and D-glucose. Rates on H2O2-forming activity of LbNOX were compared to rates of NADH disappearance in parallel experiments. It was estimated that around 1.7±0.3% of H2O2 is produced by LbNOX (n=4).
H2O2 production was monitored in a continuous assay followed by the increase in absorbance at 570 nm upon resorufin formation (ε570=54 mM^−1 cm^−1). It was shown previously that presence of NADH in the assay mixture results in the oxidation of AMPLEX® Red dye in the HRP-dependent manner and this process is greatly diminished by supplementation of superoxide dismutase (SOD) (Votyakova, et al., Arch. Biochem. Biophys., 431:138, 2004). […] The reaction was preincubated at 37° C. for 3 min before LbNOX was added (0.15 μg) and subsequently after LbNOX-dependent rate of H2O2 production was recorded, 4 U of glucose oxidase (Sigma, G2133-10 KU) was added (FIG. 6). […] H2O2-forming activity of LbNOX was compared to the total NADH oxidase activity which was determined in a parallel experiment when the decrease of NADH absorbance at 340 nm was monitored under identical conditions.

[2] = Enzyme-monitored turnover (stopped flow, FAD absorbance at 455 nm)
Experimental: The experiment was carried out by monitoring the time dependence of FAD oxidation state via its absorbance at 455 nm in 50 mM NaPi pH7.5 150 mM NaCl buffer at 4° C. Air-saturated LbNOX (1.9, 2.9, 5.6 and 9.18 μM FAD active sites after mixing) and air-saturated solution of NADH (2 mM after mixing). The traces at 455 nm are treated as records of the rate of catalysis as a continuous function of the concentration of O2 (the limiting substrate).
The reaction of LbNOX with oxygen was studied by the enzyme-monitored turnover method (Gibson, et al., J. Biol. Chem., 239:3927, 1964; and Tapley, et al., J. Biol. Chem., 282:10263, 2007). Rapid reaction studies were carried out at 4° C. in a SX20 stopped flow instrument (Applied Photophysics, UK) equipped with a diode array detector. To follow the redox state of the FAD cofactor, LbNOX enzyme (1.9, 2.9, 5.6 and 9.18 μM FAD active sites after mixing) was mixed with NADH (2 mM after mixing), both prepared in air-saturated assay buffer (50 mM Na2HPO4, pH 7.5, 150 mM NaCl) and absorbance at 455 nm was monitored over time. Solubility of oxygen at 4° C. was calculated from oxygen solubility table at corresponding salinity of the assay buffer which is ˜380 μM. Results represent (n=3) independent experiments. The traces at 455 nm reflect the conversion of oxidized to reduced enzyme forms and are treated as previously described (Gibson, et al., J. Biol. Chem., 239:3927, 1964), where the area under the curve is proportional to the concentration of oxygen which is a limiting substrate under these conditions. […] We therefore estimated that apparent KM for O2 to be less than 2 μM. Based on the enzyme concentration (1.9-9.18 μM) and time it took to consume O2 (8.12-1.67 sec), apparent kcat can be calculated (FIG. 7).

[3] = Enzymatic assay of NAD(P)H oxidase activity, NADPH as substrate (Michaelis-Menten analysis)
Experimental: TPNOX is highly specific towards NADPH (e.g., approximately 1120 fold more reactive with NADPH than with NADH based on respective kat/KM values).
Recombinant LbNOX activity was monitored by following the decrease of the absorbance of NAD(P)H at […] using CARY® 100 spectrophotometer (Agilent, CA). A typical reaction mixture contained 2 μM FAD in 0.5 ml of the assay buffer (50 mM Na2HPO4, pH 7.5, 150 mM NaCl) and was incubated for 4 min at 37° C. before NAD(P)H (2-600 μM) and enzyme (0.08-6.8 μg) were added. Extinction coefficient (ε340=6.2 mM^−1 cm^−1) was used to calculate NAD(P)H oxidase activity. Simultaneous monitoring of oxygen consumption and NADH fluorescence was performed using a custom-built fluorimeter. In our setup the REDEYE™ oxygen patch (OceanOptics) was installed in a cuvette and the optical probe was connected to a fluorimeter. Oxygen causes quenching of the REDEYE™ patch fluorescence which allows to monitor the partial pressure of oxygen. In our experiments 0.5 ml of the assay buffer was preincubated at 28° C. before NADH (40-1500 μM) and LbNOX (0.1-2 μg) were added.

Molecule | H2O2 relative to H2O production during catalytic cycle [1] | H2O2 produced (H2O2-forming rate compared to rate of NADH disappearance) ([1]; 350 μM NADH, 37° C., n=4) | apparent KM for O2, fold lower than the concentration of oxygen in human venous blood [2] | apparent KM for O2 expressed as % O2 ([2]; estimated from enzyme-monitored turnover) [% O2] | Km ([2]; estimated from enzyme-monitored turnover, 4° C., read-out: apparent KM for O2) [µM] | kcat with NADPH [3] [s⁻¹] | Km ([3]; recombinant enzyme) [µM]
B1 | 1-2 % by mole | around 1.7±0.3% | more than 10 fold | ~0.17 | < 2 |  | 
B2 |  |  |  |  |  | 268 ± 4 | 22 ± 2

— patent US11866736B2, “Protein prostheses for mitochondrial diseases or conditions” (The General Hospital Corporation, priority 2015, dated 2024)
